Results: patent publication US20220089745A1 (Biogen, published 2022)

What was measured:
[1] = biological target: T1, wild type (WT) GPIIb/IIIa ectodomain (heterodimer of SEQ ID NOs: 1 and 3) (human, UniProt P08514 32-993; P05106 27-716); assay: apparent monovalent affinity for GP2b3a (SEQ ID: 1 and 3); BLI or SPR, the method of each row is not given
T1 construct: Recombinant purified ectodomain; also called GP2b3a; integrin αIIbβ3

[2] = biological target: T2, integrin alpha v beta III ectodomain (SEQ ID NOs: 245 and 3) (human, UniProt P06756 31-992; P05106 27-716); assay: BLI, monovalent format, yeast purified Fab; drawn table of apparent integrin binding specificity
T2 construct: Purified recombinant ectodomain; also called alpha v beta 3

[3] = biological target: T2, integrin alpha v beta III ectodomain …; assay: BLI, yeast purified Fab on sensor-associated AvB3 (sheet head: SEQ ID NOs: 199, 3; legend: SEQ ID NO 245 and 3); Fab concentration not given
[4] = biological target: T2, integrin alpha v beta III ectodomain …; assay: BLI, yeast purified Fab on sensor-associated AvB3 (sheet head: SEQ ID NOs: 199, 3; legend: SEQ ID NO 245 and 3)
[5] = biological target: T3, GPIIb/IIIa on gel-purified human platelets (activated or resting) (human, UniProt P08514 32-1039; P05106 27-788); assay: flow cytometry, Fab on gel-purified human platelets; steeper curve with filled circles, which the legend box labels resting platelets
T3 construct: whole, on cells; Native receptor on platelets; also called integrin αIIbβ3 on platelets; GPIIb/IIIa on platelets

[6] = biological target: T2, integrin alpha v beta III ectodomain …; assay: BLI, yeast purified Fab on sensor-associated AvB3 (sheet head: SEQ ID NOs: 199, 3; legend: SEQ ID NO 245 and 3); remark: listed apart in the source
[7] = biological target: T2, integrin alpha v beta III ectodomain …; assay: BLI, monovalent format, yeast purified Fab; drawn table of apparent integrin binding specificity (legend of FIGS. 20A-D: alpha V beta III is SEQ ID NO 245 and 3)
[8] = biological target: T2, integrin alpha v beta III ectodomain …; assay: BLI, yeast purified Fab on sensor-associated AvB3 (sheet head: SEQ ID NOs: 199, 3; legend: SEQ ID NO 245 and 3); Fab concentration not given; remark: listed apart in the source

Row | Binder | Kd [1] | binding result [2] | further results
1 | BIIB-4-311 (Fab, V domains shown, Tested as Fab made from yeast-expressed, protein A-purified antibody; Only VH and VL are tied to the clone) VH: QVQLVQSGAEVKKPGASVKVSCKASGYTFTSYYMHWVRQAPGQGLEWMGVINPSGGSTSYAQKFQGRVTMTRDTSTSTVYMELSSLRSEDTAVYYCARLMSGSSGSWGQGTLVTVSS VL: not shown | 64 nM | no binding | –
2 | BIIB-4-174 (Fab, V domains shown, Tested as Fab made from yeast-expressed, protein A-purified antibody; Only VH and VL are tied to the clone) VH: QVQLVQSGAEVKKPGSSVKVSCKASGGTFSSYAISWVRQAPGQGLEWMGGIIPIFGTANYAQKFQGRVTITADESTSTAYMELSSLRSEDTAVYYCARGPPSAYGDYVWDIWGQGTMVTVSS VL: not shown | 11 nM | – | binding result [3]: no binding
3 | BIIB-4-319 (Fab, V domains shown, Tested as Fab made from yeast-expressed, protein A-purified antibody; Only VH and VL are tied to the clone; also called BBB-4-319) VH: QVQLQESGPGLVKPSETLSLTCAVSGYSISSGYYWAWIRQPPGKGLEWIGSIYHSGSTYYNPSLKSRVTISVDTSKNQFSLKLSSVTAADTAVYYCAREHSSSGQWNVWGQGTMVTVSS VL: EIVLTQSPATLSLSPGERATLSCRASQSVSSYLAWYQQKPGQAPRLLIYDASNRATGIPARFSGSGSGTDFTLTISSLEPEDFAVYYCQQRSFYFTFGGGTKVEIK | – | – | binding result [4]: binds
4 | BIIB-4-175 (Fab, V domains shown, Tested as Fab made from yeast-expressed, protein A-purified antibody; Only VH and VL are tied to the clone) VH: EVQLVESGGGLVQPGGSLRLSCAASGFTFSDHHMDWVRQAPGKGLEWVGRTRNKANSYTTEYAASVKGRFTISRDDSKNSLYLQMNSLKTEDTAVYYCARGPPYYADLGMGVWGQGTTVTVSS VL: EIVMTQSPATLSVSPGERATLSCRASQSVSSNLAWYQQKPGQAPRLLIYGASTRATGIPARFSGSGSGTEFTLTISSLQSEDFAVYYCQQFNLYPYTFGGGTKVEIK | 15 nM | no binding | –
5 | BIIB-4-156 (Fab, V domains shown, Tested as Fab made from yeast-expressed, protein A-purified antibody; Only VH and VL are tied to the clone) VH: QVQLVQSGAEVKKPGSSVKVSCKASGGTFSSYAISWVRQAPGQGLEWMGGIIPIFGTANYAQKFQGRVTITADESTSTAYMELSSLRSEDTAVYYCARDTGYYGASLYFDYWGQGTLVTVSS VL: EIVLTQSPATLSLSPGERATLSCRASQSVSSYLAWYQQKPGQAPRLLIYDASNRATGIPARFSGSGSGTDFTLTISSLEPEDFAVYYCQQRSALPRTFGGGTKVEIK | 11 nM | – | EC50 (read off the curve) [5]: ~20 nM; binding result [6]: binds
6 | BIIB-4-204 (Fab, V domains shown, Tested as Fab made from yeast-expressed, protein A-purified antibody; Only VH and VL are tied to the clone) VH: QVQLVQSGAEVKKPGASVKVSCKASGYTFTSYSMHWVRQAPGQGLEWMGIINPSGGSTSYAQKFQGRVTMTRDTSTSTVYMELSSLRSEDTAVYYCARSYDIGYFDLWGRGTLVTVSS VL: EIVLTQSPATLSLSPGERATLSCRASQSVSSYLAWYQQKPGQAPRLLIYDASKRATGIPARFSGSGSGTDFTLTISSLEPEDFAVYYCQQDSFLPFTFGGGTKVEIK | 170 nM | – | binding result [7]: binds
7 | BIIB-4-209 (Fab, V domains shown, Tested as Fab made from yeast-expressed, protein A-purified antibody; Only VH and VL are tied to the clone) VH: QVQLVQSGAEVKKPGASVKVSCKASGYTFTSYGISWVRQAPGQGLEWMGWISAYNGNTNYAQKLQGRVTMTTDTSTSTAYMELRSLRSDDTAVYYCARGRPYDHYFDYWGQGTLVTVSS VL: EIVLTQSPATLSLSPGERATLSCRASQSVSSYLAWYQQKPGQAPRLLIYDASNRATGIPARFSGSGSGTDFTLTISSLEPEDFAVYYCQQAYNYPFTFGGGTKVEIK | 98 nM | – | binding result [7]: binds
8 | BIIB-4-317 (Fab, V domains shown, Tested as Fab made from yeast-expressed, protein A-purified antibody; Only VH and VL are tied to the clone) VH: not shown VL: EIVLTQSPATLSLSPGERATLSCRASQSVSSYLAWFQQKPGQAPRLLIYDASNRATGIPARFSGSGSGTDFTLTISSLEPEDFAVYYCQQYSFYPLTFGGGTKVEIK | – | – | binding result [7]: binds
9 | BIIB-4-224 (Fab, V domains shown, Tested as Fab made from yeast-expressed, protein A-purified antibody; Only VH and VL are tied to the clone) VH: QLQLQESGPGLVKPSETLSLTCTVSGGSISSSSYYWGWIRQPPGKGLEWIGSIYYSGSTYYNPSLKSRVTISVDTSKNQFSLKLSSVTAADTAVYYCARDFYSSVYGMDVWGQGTTVTVSS VL: DIQLTQSPSSLSASVGDRVTITCRASQSISSFLNWYQQKPGKAPKLLIYAASSLQSGVPSRFSGSGSGTDFTLTISSLQPEDFATYYCQQSYVHPLTFGGGTKVEIK | 200 nM | no binding | –
10 | BIIB-4-318 (Fab, V domains shown, Tested as Fab made from yeast-expressed, protein A-purified antibody; Only VH and VL are tied to the clone) VH: QVQLQESGPGLVKPSETLSLTCAVSGYSISSGYYWGWIRQPPGKGLEWIGSIYHSGSTNYNPSLKSRVTISVDTSKNQFSLKLSSVTAADTAVYYCARSPRWRSTYANWFNPWGQGTLVTVSS VL: DIQLTQSPSSVSASVGDRVTITCRASQGISSWLAWYQQKPGKAPKLLIYGASSLQSGVPSRFSGSGSGTDFTLTISSLQPEDFATYYCQQAAPFPLTFGGGTKVEIK | 3 nM | no binding | –
11 | BIIB-4-147 (Fab, V domains shown, Tested as Fab made from yeast-expressed, protein A-purified antibody; Only VH and VL are tied to the clone) VH: QVQLVQSGAEVKKPGASVKVSCKASGYTFTSYGISWVRQAPGQGLEWMGWISAYNGNTNYAQKLQGRVTMTTDTSTSTAYMELRSLRSDDTAVYYCARDLEYYDSSGYAYGYFDLWGRGTLVTVSS VL: not shown | 5 nM | – | binding result [8]: no binding
12 | BIIB-4-309 (Fab, V domains shown, Tested as Fab made from yeast-expressed, protein A-purified antibody; Only VH and VL are tied to the clone; also called Fab BIIB_4_309) VH: QVQLVQSGAEVKKPGASVKVSCKASGYTFTSYGISWVRQAPGQGLEWMGWISAYNGNTNYAQKLQGRVTMTTDTSTSTAYMELRSLRSDDTAVYYCARDGLGSSPWSAFDIWGQGTMVTVSS VL: not shown | 25 nM | no binding | –
